1 protein from doi:10.1101/2022.03.26.485915 (bioRxiv, 2022) can be followed below.

This data set concerns the molecule itself. Briefly: in-vitro amyloid aggregation.

B1: Envelope domain III (EDIII) protein of ZIKV (domain or fragment, Zika virus)
chain: MGVSYSLCTAAFTFTKIPAETLHGTVTVEVQYAGTDGPCKVPAQMAVDMQTLTPVGRLITANPVITESTENSKMMLELDPPFGDSYIVIGVGEKKITHHWHRSGSTIGKGQFYLNELE
B1: the binding result is “binds”.
